Results published in patent US20260055188A1 (SHENGHE CHINA BIOPHARMACEUTICAL, published 2026).
Read-outs that look alike come from different tables or passages of the source. Each block holds one binder with its values, some of them ahead of it.

Experiments:
[1] = target: T1, Human-TNFR2-His (manufacturer: SINO, CAT: 10417-H08H) (human, UniProt P20333 23-257); assay: bridging ELISA: Human-B7H3 Fc coated (0.5 µg/mL), antibody titrated, then Human-TNFR2-His (0.5 µg/mL), HRP-labeled anti-His detection, OD450 (Example 4); the signal needs both proteins bound at once
T1 construct: Bought protein; also called human TNFR2 protein; TNFR2 protein; not shown: His tag
T1 sequence (looked up): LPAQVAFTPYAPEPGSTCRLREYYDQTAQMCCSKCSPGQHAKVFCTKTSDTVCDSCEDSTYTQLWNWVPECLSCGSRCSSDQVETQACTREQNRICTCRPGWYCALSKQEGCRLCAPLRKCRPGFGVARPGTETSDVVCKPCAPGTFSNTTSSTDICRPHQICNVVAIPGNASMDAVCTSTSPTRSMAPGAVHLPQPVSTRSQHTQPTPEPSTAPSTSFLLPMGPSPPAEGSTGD
Experimental: Human-B7H3 Fc (manufacturer: Acro, CAT: B73-H5253, LOT: 2053b-201XF1-UD) was diluted to 0.5 μg/mL with a coating solution (1×PBS, pH7.4) and coated into a 96-well ELISA plate at 100 μL/well at 4° C. overnight. The coating solution was poured off. Each well was washed with 1×PBST at 300 μL, washed 4 times with a plate washer, and patted dry on a flat paper. It was blocked with 3% skim milk powder at 300 μL/well, and incubated at 37° C. for 1 h. The blocking solution was poured off, washed 4 times with a plate washer, and patted dry on a flat paper. […] Starting at 300 nM, which was used as the initial concentration for 3-fold dilution, a total of 8 gradients were diluted, and a blank well was set up, and only diluent was added. It was incubated at 37° C. for 1 h at 100 μL/well. The liquid in the well was discarded, washed 4 times with a plate washer, and patted dry on a flat paper. Human-TNFR2-His (manufacturer: Sino, CAT: 10417-H08H, LOT: LC12SE2902) was diluted to 0.5 μg/mL, 100 μL was added to each well, and incubated at room temperature for 1 h. The plate was washed 3 times with PBST, and then the HRP-labeled his antibody was diluted with sample diluent at 1:10000, 100 μL was added to each well, and incubated at room temperature for 1 h. It was washed 6 times with a plate washer, and patted dry on a flat paper. TMB color developing solution was added at 100 μL/well, and wrapped with aluminum foil. Color development was performed at 37° C. in the dark for 8 min. Termination solution 1M HCl was added to terminate the color development reaction at 100 μL/well. Readings were taken at 450 nm on an ELISA reader.

[2] = target: T2, Human-B7H3 His (manufacturer: Acro, CAT: TB73-H52E2) (human, UniProt Q5ZPR3-2 29-245); assay: ELISA: Human-B7H3 His coated (0.3 µg/mL), antibody titrated, goat anti-human IgG Fc detection, OD450 (Example 3)
T2 construct: also called human B7H3 protein; B7H3 protein; not shown: His tag
T2 sequence (looked up): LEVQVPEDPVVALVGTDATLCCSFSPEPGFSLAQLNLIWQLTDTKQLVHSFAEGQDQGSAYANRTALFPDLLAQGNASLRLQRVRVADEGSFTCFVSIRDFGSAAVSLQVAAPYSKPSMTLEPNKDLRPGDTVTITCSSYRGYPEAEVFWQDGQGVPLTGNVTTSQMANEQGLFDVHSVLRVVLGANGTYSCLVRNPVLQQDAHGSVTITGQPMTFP
Experimental: (§1) Human-B7H3 His (manufacturer: Acro, CAT: TB73-H52E2, LOT: 2052-21AXF1-YS) was diluted to 0.3 μg/mL with a coating solution (1×PBS, pH7.4), and coated into a 96-well ELISA plate at 100 μL/well overnight at 4° C. The coating solution was poured off. Each well was washed with 1×PBST at 300 μL, washed 4 times with a plate washer, and patted dry on a flat paper. It was blocked with 3% skim milk powder at 300 μL/well, and incubated at 37° C. for 1 h. The blocking solution was poured off, washed 4 times with a plate washer, and patted dry on a flat paper. Negative control and positive control were set up. […] The variable region of the antibody sequence of the positive control consists of SEQ ID NO: 1 and SEQ ID NO: 5, with the constant region of human IgG1 added (SEQ ID NO: 85 and SEQ ID NO: 86). The positive control and antibody were diluted to 10 μg/mL with 3% skim milk powder as the starting concentration, and then diluted by 3-fold gradient (11 gradients in total). A blank well was set up and only the diluent was added. It was incubated at 37° C. for 1 h at 100 μL/well. The liquid in the well was discarded, washed 4 times with a plate washer, and patted dry on a flat paper. Goat anti-human IgG Fc was diluted with 3% skim milk powder at 1:20000, and incubated at 37° C. for 1 h at 100 μL/well. It was washed 6 times with a plate washer, and patted dry on a flat paper. TMB color developing solution was added at 100 μL/well, and wrapped with aluminum foil. Color development was performed at 37° C. in the dark for 8 min. Termination solution 1M HCl was added to terminate the color development reaction at 100 μL/well. Readings were taken at 450 nm on an ELISA reader.

[3] = target: T1, Human-TNFR2-His (manufacturer: SINO, …); assay: ELISA: Human-TNFR2-His coated (0.3 µg/mL), antibody titrated, goat anti-human IgG Fc detection, OD450 (Example 2)
Experimental: Human-TNFR2-His (manufacturer: SINO, CAT: 10417-H08H, LOT: LC15NO0412) was diluted to 0.3 μg/mL with a coating solution (1×PBS, pH7.4), and coated into a 96-well ELISA plate at 100 μL/well overnight at 4° C. The coating solution was poured off. Each well was washed with 1×PBST at 300 μL, washed 4 times with a plate washer, and patted dry on a flat paper. It was blocked with 3% skim milk powder at 300 μL/well, and incubated at 37° C. for 1 h. The blocking solution was poured off, washed 4 times with a plate washer, and patted dry on a flat paper. Negative control and positive control were set up. […] The positive control and antibody were diluted to 10 μg/mL with 3% skim milk powder as the starting concentration, and then diluted by 3-fold gradient (11 gradients in total). A blank well was set up and only the diluent was added. It was incubated at 37° C. for 1 h at 100 μL/well. The liquid in the well was discarded, washed 4 times with a plate washer, and patted dry on a flat paper. Goat anti-human IgG Fc was diluted with 3% skim milk powder at 1:20000, and incubated at 37° C. for 1 h at 100 μL/well. It was washed 6 times with a plate washer, and patted dry on a flat paper. TMB color developing solution was added at 100 μL/well, and wrapped with aluminum foil. Color development was performed at 37° C. in the dark for 8 min. Termination solution 1M HCl was added to terminate the color development reaction at 100 μL/well. Readings were taken at 450 nm on an ELISA reader.

[4] = target: T2, Human-B7H3 His (manufacturer: Acro, …); assay: ELISA: Human-B7H3 His coated (0.3 µg/mL), antibody titrated, goat anti-human IgG Fc detection, OD450 (Example 3); remark: listed apart in the source
Experimental: as §1

[5] = target: T1, Human-TNFR2-His (manufacturer: SINO, …); assay: flow cytometry, bridging: CHOK1-18.2 cells (human Claudin18.2) + 150 nM antibody + human TNFR2-His, anti-His FITC detection
Experimental: Human TNFR2 protein (SINO, CAT: 10417-H08H) was sequentially added into 96-well plate with 100 μL/well, and after mixing, the 96-well plate was incubated at 4° C. for 1 h. Pre-cooled dilution was added and washed once, centrifuged (3000 rpm, 3 min), and the supernatant was discarded, and the cells were harvested. Fluorescent secondary antibody Anti-6X-his tag antibody (FITC) (manufacturer: abcam, Cat. No.: ab1206, Lot No.: GR3420599-3) was taken and diluted at the used concentration of 1:500. 100 μL of dilution was added to the blank control group, and 100 μL of fluorescent secondary antibody dilution was added to the rest of the sample groups respectively. After incubation for 0.5 h at room temperature and 4° C. protected from light, PBS was added to wash and centrifuged (3000 rpm, 3 min) twice. After discarding the supernatant, 80 μL of the dilution was added and resuspended.

- binding result [3]: binds
- EC50 (read off the curve) [4]: ~1 nM
B4: TB-D2 (bispecific antibody, human IgG4 S228P, kappa)
light: DIVMTQSPATLSVTPGDRVSLSCRASQSISDYLHWYQQKSHESPRLLIKYASQSISGIPSRFSGSGSGSDFTLSINSVEPEDVGVYYCQNGHSFPLTFGAGTKLELKRTVAAPSVFIFPPSDEQLKSGTASVVCLLNNFYPREAKVQWKVDNALQSGNSQESVTEQDSKDSTYSLSSTLTLSKADYEKHKVYACEVTHQGLSSPVTKSFNRGEC
heavy: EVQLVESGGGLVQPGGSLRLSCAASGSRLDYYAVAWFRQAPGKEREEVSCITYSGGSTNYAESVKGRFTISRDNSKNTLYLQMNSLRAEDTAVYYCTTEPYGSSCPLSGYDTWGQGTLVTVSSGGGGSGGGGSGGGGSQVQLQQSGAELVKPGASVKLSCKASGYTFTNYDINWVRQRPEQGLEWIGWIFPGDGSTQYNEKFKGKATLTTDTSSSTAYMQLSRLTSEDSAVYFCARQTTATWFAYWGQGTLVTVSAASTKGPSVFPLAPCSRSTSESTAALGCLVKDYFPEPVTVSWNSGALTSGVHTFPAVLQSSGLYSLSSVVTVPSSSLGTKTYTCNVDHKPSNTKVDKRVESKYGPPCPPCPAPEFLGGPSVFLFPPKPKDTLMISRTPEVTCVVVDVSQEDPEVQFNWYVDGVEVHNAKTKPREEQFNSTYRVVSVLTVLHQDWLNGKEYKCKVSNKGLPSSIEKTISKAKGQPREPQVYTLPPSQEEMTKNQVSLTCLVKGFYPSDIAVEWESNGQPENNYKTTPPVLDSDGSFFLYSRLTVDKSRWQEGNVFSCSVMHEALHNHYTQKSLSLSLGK
notes: also called antibody TB-D2

- EC50 (read off the curve) [2]: ~0.3 nM
- EC50 (read off the curve) [4]: ~0.2 nM
B5: Positive Control (antibody, V domains shown)
VH: QVQLQQSGAELVKPGASVKLSCKASGYTFTNYDINWVRQRPEQGLEWIGWIFPGDGSTQYNEKFKGKATLTTDTSSSTAYMQLSRLTSEDSAVYFCARQTTATWFAYWGQGTLVTVSA
VL: DIVMTQSPATLSVTPGDRVSLSCRASQSISDYLHWYQQKSHESPRLLIKYASQSISGIPSRFSGSGSGSDFTLSINSVEPEDVGVYYCQNGHSFPLTFGAGTKLELK

- binding result [1]: binds
- EC50 (read off the curve) [2]: ~0.2 µg/mL
B6: TB-F (bispecific antibody, human IgG1, kappa)
light: EVQLVQSGAEVKKPGATVKISCKVSGYSITDYLLHWVQQAPGKCLEWMGWIDPEDAKTKYGQKFQSRVTITADTSTDTAYMELSSLRSEDTAVYYCAANSGTGTMDAWGQGTLVTVSSGGGGSGGGGSGGGGSDIVMTQSPATLSVSPGERATLSCKASQNVGSNVDWYQQKPGQSPRVLIYKASIRYTGIPARFSGSGSGTEFTLTISILQSEDFAVYFCMQSKSYPITFGCGTKLEIKGGGGSGGGGSGGGGSDIVMTQSPATLSVTPGDRVSLSCRASQSISDYLHWYQQKSHESPRLLIKYASQSISGIPSRFSGSGSGSDFTLSINSVEPEDVGVYYCQNGHSFPLTFGAGTKLELKRTVAAPSVFIFPPSDEQLKSGTASVVCLLNNFYPREAKVQWKVDNALQSGNSQESVTEQDSKDSTYSLSSTLTLSKADYEKHKVYACEVTHQGLSSPVTKSFNRGEC
heavy: not shown
notes: also called antibody TB-F

The next lines start with the binder.

B1: TB-G (bispecific antibody, human IgG1, kappa)
light: DIVMTQSPATLSVTPGDRVSLSCRASQSISDYLHWYQQKSHESPRLLIKYASQSISGIPSRFSGSGSGSDFTLSINSVEPEDVGVYYCQNGHSFPLTFGAGTKLELKRTVAAPSVFIFPPSDEQLKSGTASVVCLLNNFYPREAKVQWKVDNALQSGNSQESVTEQDSKDSTYSLSSTLTLSKADYEKHKVYACEVTHQGLSSPVTKSFNRGECGGGGSGGGGSEVQLVESGGGLVQPGGSLRLSCAASGSRLDYYAVAWFRQAPGKEREEVSCITYSGGSTNYAESVKGRFTISRDNSKNTLYLQMNSLRAEDTAVYYCTTEPYGSSCPLSGYDTWGQGTLVTVSS
heavy: not shown
notes: also called antibody TB-G
- binding result [1]: binds

B2: TB-H (bispecific antibody, human IgG1, kappa)
light: EVQLVESGGGLVQPGGSLRLSCAASGSRLDYYAVAWFRQAPGKEREEVSCITYSGGSTNYAESVKGRFTISRDNSKNTLYLQMNSLRAEDTAVYYCTTEPYGSSCPLSGYDTWGQGTLVTVSSGGGGSGGGGSGGGGSDIVMTQSPATLSVTPGDRVSLSCRASQSISDYLHWYQQKSHESPRLLIKYASQSISGIPSRFSGSGSGSDFTLSINSVEPEDVGVYYCQNGHSFPLTFGAGTKLELKRTVAAPSVFIFPPSDEQLKSGTASVVCLLNNFYPREAKVQWKVDNALQSGNSQESVTEQDSKDSTYSLSSTLTLSKADYEKHKVYACEVTHQGLSSPVTKSFNRGEC
heavy: not shown
notes: also called antibody TB-H
- binding result [1]: binds
- EC50 (read off the curve) [2]: ~0.2 µg/mL

B3: TB-C2 (bispecific antibody, human IgG4 S228P, kappa)
light: B4 light
heavy: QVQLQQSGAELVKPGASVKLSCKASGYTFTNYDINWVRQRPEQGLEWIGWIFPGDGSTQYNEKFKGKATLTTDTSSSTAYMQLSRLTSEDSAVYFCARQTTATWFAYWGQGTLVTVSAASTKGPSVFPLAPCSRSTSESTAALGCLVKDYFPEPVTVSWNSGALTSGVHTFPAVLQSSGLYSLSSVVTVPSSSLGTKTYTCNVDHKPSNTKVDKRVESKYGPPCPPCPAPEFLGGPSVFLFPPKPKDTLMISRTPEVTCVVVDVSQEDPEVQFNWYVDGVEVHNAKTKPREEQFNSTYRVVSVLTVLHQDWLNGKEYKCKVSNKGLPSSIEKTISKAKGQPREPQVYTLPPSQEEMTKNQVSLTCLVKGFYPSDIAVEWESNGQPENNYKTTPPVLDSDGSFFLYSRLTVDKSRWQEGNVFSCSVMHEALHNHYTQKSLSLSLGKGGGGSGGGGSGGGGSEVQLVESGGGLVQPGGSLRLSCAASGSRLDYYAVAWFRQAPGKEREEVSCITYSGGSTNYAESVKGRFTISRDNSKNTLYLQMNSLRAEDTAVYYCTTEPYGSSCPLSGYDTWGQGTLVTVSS
notes: also called antibody TB-C2
- binding result [3]: binds
- EC50 (read off the curve) [4]: ~2 nM

B7: TC-B2 (bispecific antibody, human IgG1, kappa)
light: EIVMTQSPPTLSLSPGERVTLSCKSSQSLLNSGNQKNYLTWYQQKPGQAPRLLIYWASTRESSIPARFSGSGSGTDFTLTISSLQPEDFAVYYCQNNYIYPLTFGGGTKLELKRTVAAPSVFIFPPSDEQLKSGTASVVCLLNNFYPREAKVQWKVDNALQSGNSQESVTEQDSKDSTYSLSSTLTLSKADYEKHKVYACEVTHQGLSSPVTKSFNRGEC
heavy: not shown
- E1 Mean FITC-A [5]: 139000
